Test results: the supplement of paper PMC10724198
± gives the standard deviation of the averaged measurements.

Key:
Saccharomyces cerevisiae [1] = experiment: protein stability index of tFT-peptide fusion in deletion strain of DAS1 (PSI (0-1 scale)); higher = more stable (slower turnover)
Procedure: (§1)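 MPS profiling in S. cerevisiae of two library types built from selected 12-aa C-degron peptides (IN1, IN2, LN1, LN3, VN2, R1-R5, W1-W3, Atg1 and Rpa12 C-termini): saturation mutagenesis libraries and C-terminal +1 capping libraries (13 aa). Each peptide is fused to the C-terminus of a sfGFP-mCherry timer, after a GGGS linker. Cells are FACS-sorted into 8 mCherry/sfGFP bins and sequenced. PSI runs from 0 (unstable) to 1 (stable), measured once in wild type and in the das1Δ or doa10Δ background.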

Saccharomyces cerevisiae [2] = experiment: protein stability index of tFT-peptide fusion in wild type (PSI (0-1 scale)); higher = more stable (slower turnover); conditions: genetic background: wild type
Procedure: as §1

Saccharomyces cerevisiae [3] = experiment: protein stability index of tFT-peptide fusion (C-terminal peptide) (PSI (0-1 scale)); higher = more stable (slower turnover); conditions: temperature: 30 C
Procedure: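 MPS profiling in S. cerevisiae of the yeast C-terminome library: the last 12 aa of each annotated ORF are fused to the C-terminus of a sfGFP-mCherry timer, after a GGGS linker. Cells are FACS-sorted into 8 mCherry/sfGFP bins and deep-sequenced. PSI runs from 0 (unstable) to 1 (stable); wild type and das1Δ backgrounds, two technical replicates each.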

[4] = genetic background: das1 deletion
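Throughout, for protein stability index of tFT-peptide fusion in deletion strain of DAS1: PSI is a weighted mean of each variant's read distribution over the sorted stability bins, computed only for variants having over 10 reads in total.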
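Throughout, for protein stability index of tFT-peptide fusion in wild type: PSI derived as read-weighted mean over the 8 sorting bins, only variants exceeding 10 total reads kept, mCherry placed adjacent to the peptide and sfGFP distal.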

| Sequence | protein stability index (Saccharomyces cerevisiae [1]) | protein stability index (Saccharomyces cerevisiae [2]) | protein stability index (Saccharomyces cerevisiae [3]; [4]) | protein stability index (Saccharomyces cerevisiae [3]; genetic background: wild type) |
| --- | --- | --- | --- | --- |
| AIWRVGLWRGAS | 0.69 | 0.405 | – | – |
| ARTRVGLWRGAS | 0.66 | 0.598 | – | – |
| ARWRVGFWRGAS | 0.666 | 0.551 | – | – |
| ARWRVGLLRGAS | 0.669 | 0.652 | – | – |
| ARWRVGLWRGAQ | 0.679 | 0.411 | – | – |
| ARWRVGLWRGNS | 0.68 | 0.553 | – | – |
| ARWRVGYWRGAS | 0.691 | 0.478 | – | – |
| ARWRVSLWRGAS | 0.687 | 0.268 | – | – |
| CESCGYKFRTNN | 0.681 | 0.327 | – | – |
| CMSCGYKFRTNN | 0.71 | 0.228 | – | – |
| CRGAVGGWRLVG | 0.647 | 0.163 | – | – |
| CTCCGYKFRTNN | 0.676 | 0.294 | – | – |
| CTKCGYKFRTNN | 0.687 | 0.258 | – | – |
| CTNCGYKFRTNN | 0.696 | 0.216 | – | – |
| CTSCGAKFRTNN | 0.723 | 0.502 | – | – |
| CTSCGCKFRTNN | 0.694 | 0.543 | – | – |
| CTSCGLKFRTNN | 0.691 | 0.34 | – | – |
| CTSCGVKFRTNN | 0.692 | 0.486 | – | – |
| CTSCGYKCRTNN | 0.661 | 0.601 | – | – |
| CTSCGYKFATNN | 0.695 | 0.385 | – | – |
| CTSCGYKFHTNN | 0.713 | 0.429 | – | – |
| CTSCGYKFRDNN | 0.663 | 0.673 | – | – |
| CTSCGYKFRQNN | 0.69 | 0.497 | – | – |
| CTSCGYKFRTCN | 0.702 | 0.18 | – | – |
| CTSCGYKFRTNF | 0.712 | 0.417 | – | – |

| Sequence | protein stability index (Saccharomyces cerevisiae [1]) | protein stability index (Saccharomyces cerevisiae [2]) | protein stability index (Saccharomyces cerevisiae [3]; [4]) | protein stability index (Saccharomyces cerevisiae [3]; genetic background: wild type) |
| --- | --- | --- | --- | --- |
| CTSCGYKFRTNNH | 0.706 | 0.687 | – | – |
| CTSCGYKFRTNNK | 0.682 | 0.669 | – | – |
| CTSCGYKFRTNR | 0.692 | 0.696 | – | – |
| CTSCGYKFRTNY | 0.742 | 0.611 | – | – |
| CTSCGYKFRTQN | 0.663 | 0.201 | – | – |
| CTSCGYKFSTNN | 0.713 | 0.684 | – | – |
| CTSCYYKFRTNN | 0.639 | 0.199 | – | – |
| CTSEGYKFRTNN | 0.68 | 0.507 | – | – |
| CTSQGYKFRTNN | 0.678 | 0.251 | – | – |
| CTTCGYKFRTNN | 0.677 | 0.267 | – | – |
| DLIQPLPVQFLN | 0.59 | 0.127 | – | – |
| ERWRVGLWRGAS | 0.741 | 0.378 | – | – |
| ETSCGYKFRTNN | 0.672 | 0.266 | – | – |
| FDMRWTFRYWVN | 0.557 | 0.089 | – | – |
| FEMRWTFRYWVN | 0.437 | 0.0443 | – | – |
| FFMRWTFRYWVN | 0.371 | 0.0417 | – | – |
| FSERWTFRYWVN | 0.604 | 0.122 | – | – |
| FSMCWTFRYWVN | 0.412 | 0.0491 | – | – |
| FSMDWTFRYWVN | 0.543 | 0.0547 | – | – |
| FSMIWTFRYWVN | 0.301 | 0.0367 | – | – |
| FSMKWTFRYWVN | 0.565 | 0.0449 | – | – |
| FSMPWTFRYWVN | 0.598 | 0.11 | – | – |
| FSMRKTFRYWVN | 0.577 | 0.0767 | – | – |
| FSMRPTFRYWVN | 0.562 | 0.12 | – | – |
| FSMRWHFRYWVN | 0.756 | 0.0543 | – | – |

| Sequence | protein stability index (Saccharomyces cerevisiae [1]) | protein stability index (Saccharomyces cerevisiae [2]) | protein stability index (Saccharomyces cerevisiae [3]; [4]) | protein stability index (Saccharomyces cerevisiae [3]; genetic background: wild type) |
| --- | --- | --- | --- | --- |
| FSMRWIFRYWVN | 0.535 | 0.163 | – | – |
| FSMRWMFRYWVN | 0.528 | 0.094 | – | – |
| FSMRWPFRYWVN | 0.569 | 0.0756 | – | – |
| FSMRWRFRYWVN | 0.584 | 0.0911 | – | – |
| FSMRWTFRMWVN | 0.31 | 0.0197 | – | – |
| FSMRWTFRPWVN | 0.6 | 0.245 | – | – |
| FSMRWTFRVWVN | 0.271 | 0.035 | – | – |
| FSMRWTFRYPVN | 0.555 | 0.548 | – | – |
| FSMRWTFRYWCN | 0.516 | 0.081 | – | – |
| FSMRWTFRYWVF | 0.439 | 0.0705 | – | – |
| FSMRWTFRYWVND | 0.557 | 0.539 | – | – |
| FSMRWTFRYWVNG | 0.537 | 0.431 | – | – |
| FSMRWTFRYWVNM | 0.543 | 0.113 | – | – |
| FSMRWTYRYWVN | 0.504 | 0.0544 | – | – |
| FTMRWTFRYWVN | 0.428 | 0.0324 | – | – |
| WAIESVDENWRF [TOP1 C-terminal 12 aa] | – | – | 0.746 ± 0.032 | 0.773 ± 0.04 |
| WARRSFSSYDLC [GID11 C-terminal 12 aa] | – | – | 0.7053 ± 0.0036 | 0.694 ± 0.011 |
| WDLEQIMSQHGF [PCL1 C-terminal 12 aa] | – | – | 0.7397 ± 0.007 | 0.735 ± 0.0046 |
| WLTTKMSSSEAS [UIP4 C-terminal 12 aa] | – | – | 0.708 ± 0.014 | 0.741 ± 0.025 |
| WNCFLSMRNASK [YOR292C C-terminal 12 aa] | – | – | 0.693 ± 0.012 | 0.72 ± 0.028 |
| WRFLGIVKSPNT [YDR510C-A C-terminal 12 aa] | – | – | 0.6815 ± 0.0017 | 0.693 ± 0.013 |
| WRQEYPGVDEFF [PRM8 C-terminal 12 aa] | – | – | 0.742 ± 0.0099 | 0.748 ± 0.045 |
| YAGIPENKIIGV [ARG56 C-terminal 12 aa] | – | – | 0.703 ± 0.048 | 0.702 ± 0.021 |
| YCLAGVLCVFCV [YPR064W C-terminal 12 aa] | – | – | 0.431 ± 0.013 | 0.433 ± 0.0085 |
| YDKESDDRKCCL [CTR3 C-terminal 12 aa] | – | – | 0.681 ± 0.0083 | 0.675 ± 0.034 |

| Sequence | protein stability index (Saccharomyces cerevisiae [1]) | protein stability index (Saccharomyces cerevisiae [2]) | protein stability index (Saccharomyces cerevisiae [3]; [4]) | protein stability index (Saccharomyces cerevisiae [3]; genetic background: wild type) |
| --- | --- | --- | --- | --- |
| YGISSSVLKGST [PHO87 C-terminal 12 aa] | – | – | 0.7153 ± 0.0032 | 0.676 ± 0.009 |
| YGLNIGRPDFYR [TAF10 C-terminal 12 aa] | – | – | 0.725 ± 0.016 | 0.7099 ± 0.0023 |
| YHAVDSTMSPKN [OST4 C-terminal 12 aa] | – | – | 0.693 ± 0.019 | 0.719 ± 0.047 |
| YHKLVDEVFQHL [MPA43 C-terminal 12 aa] | – | – | 0.71092 ± 0.00027 | 0.688 ± 0.016 |
| YIDDIDQTIPKY [UBA4 C-terminal 12 aa] | – | – | 0.7441 ± 0.0062 | 0.686 ± 0.0073 |
| YILFFLFQLSIM [PEX35 C-terminal 12 aa] | – | – | 0.342 ± 0.02 | 0.369 ± 0.015 |
| YKDDEDDDIEMT [PDS5 C-terminal 12 aa] | – | – | 0.679 ± 0.011 | 0.685 ± 0.051 |
| YLGAKTGSLIDF [KAR5 C-terminal 12 aa] | – | – | 0.702 ± 0.015 | 0.721 ± 0.026 |
| YLIAVTNLVERE [PPT2 C-terminal 12 aa] | – | – | 0.682 ± 0.045 | 0.723 ± 0.086 |
| YLKLRGANFVLK [IES6 C-terminal 12 aa] | – | – | 0.695 ± 0.013 | 0.684 ± 0.011 |
| YLKRCCYHPMQN [YIL020C-A C-terminal 12 aa] | – | – | 0.72572 ± 0.00065 | 0.679 ± 0.035 |
| YLRRFFEVTSLV [EMP24 C-terminal 12 aa] | – | – | 0.552 ± 0.011 | 0.338 ± 0.03 |
| YLYVFLQQARLE [YBR032W C-terminal 12 aa] | – | – | 0.51 ± 0.029 | 0.473 ± 0.018 |
| YMIRFIANGYYY [SWR1 C-terminal 12 aa] | – | – | 0.613 ± 0.014 | 0.614 ± 0.009 |
| YMKHLLECRSLW [PCD1 C-terminal 12 aa] | – | – | 0.733 ± 0.019 | 0.6945 ± 0.00077 |
| YNINDLYKSLTR [MAK32 C-terminal 12 aa] | – | – | 0.7059 ± 0.0029 | 0.711 ± 0.023 |
| YPVGQVDRDVCC [TAD3 C-terminal 12 aa] | – | – | 0.6955 ± 0.0022 | 0.685 ± 0.037 |
| YQGVIYGIDGDQ [POP2 C-terminal 12 aa] | – | – | 0.699 ± 0.012 | 0.689 ± 0.041 |
| YSISISLHTPCV [YHR049C-A C-terminal 12 aa] | – | – | 0.66 ± 0.013 | 0.632 ± 0.02 |
| YTDLASIASGRD [SHS1 C-terminal 12 aa] | – | – | 0.691 ± 0.016 | 0.714 ± 0.092 |
| YTVLEDDANDEK [HAP1 C-terminal 12 aa] | – | – | 0.673 ± 0.017 | 0.7 ± 0.027 |
| YVFVFIIDFIIR [FUN26 C-terminal 12 aa] | – | – | 0.213 ± 0.006 | 0.245 ± 0.0059 |
